Test [1] addresses T1, rPenton (fiber and penton base) (Human adenovirus C serotype 5, UniProt P11818+P12538).
T1 construct: enterokinase recognition site 5′ of the full-length human AdV5 penton base (PB) gene; The baculovirus expression system was used to generate full-length human AdV-5 fiber; enterokinase recognition site (pRSET-A leader) (N); 6xHis followed by Tev protease recognition site (N, cleaved yes); made in house; host or cells: PB: E. coli BL21-CodonPlus (DE3)-RIPL; fiber: HighFive insect cells (baculovirus)
The test is described as follows: biochemical. It is filed as binding, human AdV-5. The conditions noted are these: for Kd: SPR Biacore T200, CM5 chip, 2115 RU rPenton, 25°C, HBS EP+ pH 7.4, steady-state fit of RU at 80 sec association, 3 µM to 111 nM, best-fit ± SE. The method, then: (§1) Experiments were performed on a Biacore T200 system (Biacore, GE Healthcare) at 25°C in HBS EP+ running buffer (9.5 mM HEPES, 142.5 mM NaCl, 2.85 mM EDTA, 0.05% surfactant P20, pH 7.4). The first flow cell on a CM5 sensor chip was reserved to measure background binding, while additional cells were used to immobilize fiber, PB, and rPenton by amine-coupling chemistry. A target density of 2000 resonance units (RU) was selected for rPenton, and for Figure 3D, an equal number of fiber (708 RU) and PB (1292 RU) were also targeted for immobilization. The final RUs immobilized were: 2115 RU rPenton, 889 RU fiber, and 1061 RU PB. Analyte was injected to the flow cells at a rate of 11 µl/min and binding was measured for 3 min, followed by measuring dissociation for 5 min in analyte-free running buffer. The flow cells were regenerated with two 30 s pulses of 10 mM HCl at 11 µl/min separated by 30 s in running buffer. After regeneration, the flow cells were stabilized in running buffer for 2 min before injection of the next analyte. Data analysis was performed using Biacore T200 evaluation software and Prism (version 5.0d).
Affinity (KD) and Bmax were derived by fitting RU values at 80 s post-injection using the Steady State Surface Bound Affinity model in Biacore T200 Evaluation software. Stoichiometry (Sm) of HD5 bound to rPenton at saturation was calculated using the following equation: [drawing 1] (1)
(In general: SPR reads the build-up and loss of mass on a sensor chip optically.)

Test [2] concerns the target rPenton, recombinant penton capsomere of human AdV-5 fiber and penton base (human AdV-5). The test is described as follows: SPR.
The subject of test [3] is AdV5.eGFP. The test is described as follows: Neutralization of AdV5.eGFP pre-bound to A549 cells before addition of HNP1. It is filed as cell-based, human AdV-5. The conditions noted are these: virus pre-bound to cells, versus wild type HNP1.
Method: A549 cell monolayers were infected with serial dilutions of AdV5.eGFP in black wall, clear bottom 96-well plates (Perkin-Elmer, San Jose, CA). Total monolayer fluorescence was quantified with a Typhoon 9400 variable mode imager (GE Healthcare, Piscataway, NJ) 24–30 h post-infection. A virus concentration producing 50–80% maximal signal was chosen for inhibition studies.
Serum-free DMEM (SFM) alone or containing increasing concentrations of wild type or mutant HD5 was incubated with purified AdV5.eGFP for 45 min on ice. The mixture (35 µl/well) was added to a confluent monolayer of A549 cells that had been washed twice in SFM. Cells were then incubated at 37°C for 2 h with rocking, washed, and cultured with complete DMEM for 24–30 h. Plates were scanned for eGFP signal as above, and background-subtracted total well fluorescence was quantified using ImageJ software [36]. […] For assays with HNP1, virus alone in SFM was pre-incubated on a confluent monolayer of A549 cells with rocking for 45 min at 4°C. Cells were then washed twice with chilled SFM, and SFM alone or containing increasing concentrations of wild type or mutant HNP1 was added. Cells were incubated for 45 min at 4°C and then shifted to 37°C. After 2 h, cells were washed twice with complete media and incubated a further 24–30 h at 37°C until eGFP signal was quantified as above.
Test [4] addresses human AdV-5 fiber (human AdV-5). The test is described as follows: immunoblot of samples heated or not before SDS-PAGE; fiber samples heated or not for 5 min to 95°C, 4D2 anti-fiber mAb; data not shown. In general terms: Immunoblotting shows a protein as a band on a membrane.
The target is the same in test [5]. The test is described as follows: SEC; analytical size exclusion chromatography, Superdex 200 10/300 GL; data not shown. (In general: In gel filtration, larger molecules generally elute earlier.)
The target of test [6] is human AdV-5 penton base (human AdV-5). The test is described as above.
Test [7] relates to AdV5.eGFP. The conditions noted are these: cited from earlier work.
For another test, the system named is fiber. The test is described as follows: SPR binding to immobilized fiber. To be noted: CAR-Ig at 35 nM, 889 RU fiber. Set-up: species or system human AdV-5. The method, then:
as §1

A further test deals with penton base (PB). The test is described as follows: SPR binding to immobilized penton base. Set-up: species or system human AdV-5. The conditions noted are these: CAR-Ig at 35 nM, 1061 RU PB. As to the method:
as §1

Data on 11 molecules can be found in publication PMC4154873, “Delineation of Interfaces on Human Alpha-Defensins Critical for Human Adenovirus and Human Papillomavirus Inhibition” (PLoS Pathogens, 2014).

Where a SMILES comes first, the peptide text is derived from it. Bridges are numbered along the chain shown (N, C = ends).

Sequence of rPenton, recombinant penton capsomere of human AdV-5 fiber and penton base (human AdV-5) (P11818 whole entry, chain 1 of 2): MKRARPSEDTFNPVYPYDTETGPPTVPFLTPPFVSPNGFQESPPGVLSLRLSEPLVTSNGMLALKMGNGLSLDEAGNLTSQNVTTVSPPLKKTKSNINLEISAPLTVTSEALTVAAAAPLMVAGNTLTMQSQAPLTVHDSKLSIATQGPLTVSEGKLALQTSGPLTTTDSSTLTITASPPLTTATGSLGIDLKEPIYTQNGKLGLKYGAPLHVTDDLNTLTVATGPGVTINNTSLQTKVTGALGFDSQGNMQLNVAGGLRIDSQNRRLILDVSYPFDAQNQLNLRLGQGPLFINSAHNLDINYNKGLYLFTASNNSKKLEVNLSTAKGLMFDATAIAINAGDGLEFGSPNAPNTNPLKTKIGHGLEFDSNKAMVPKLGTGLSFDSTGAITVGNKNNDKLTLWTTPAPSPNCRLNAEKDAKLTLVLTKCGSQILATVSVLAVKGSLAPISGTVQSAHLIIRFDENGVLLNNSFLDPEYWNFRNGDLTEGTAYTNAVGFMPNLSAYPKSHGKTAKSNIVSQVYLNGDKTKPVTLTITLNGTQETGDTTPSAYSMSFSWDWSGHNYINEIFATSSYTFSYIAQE
Sequence of rPenton, recombinant penton capsomere of human AdV-5 fiber and penton base (human AdV-5) (P12538 whole entry, chain 2 of 2, further chain): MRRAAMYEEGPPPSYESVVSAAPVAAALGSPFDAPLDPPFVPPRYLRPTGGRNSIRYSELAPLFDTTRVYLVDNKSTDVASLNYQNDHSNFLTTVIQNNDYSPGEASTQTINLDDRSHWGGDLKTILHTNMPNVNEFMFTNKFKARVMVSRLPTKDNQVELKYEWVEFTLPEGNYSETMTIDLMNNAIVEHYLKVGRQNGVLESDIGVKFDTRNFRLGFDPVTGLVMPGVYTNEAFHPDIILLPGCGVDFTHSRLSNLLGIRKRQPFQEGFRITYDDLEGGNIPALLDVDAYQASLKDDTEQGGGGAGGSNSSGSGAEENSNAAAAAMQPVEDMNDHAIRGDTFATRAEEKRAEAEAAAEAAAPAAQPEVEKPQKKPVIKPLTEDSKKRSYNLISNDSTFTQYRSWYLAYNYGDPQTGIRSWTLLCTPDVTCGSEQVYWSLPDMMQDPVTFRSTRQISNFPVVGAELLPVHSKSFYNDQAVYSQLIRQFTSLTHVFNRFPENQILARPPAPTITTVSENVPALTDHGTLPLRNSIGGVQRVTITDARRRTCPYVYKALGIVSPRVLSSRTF
T1 sequence (P11818 whole entry): as the sequence (P11818 whole entry, chain 1 of 2) above
T1 sequence (P12538 whole entry): as the sequence (P12538 whole entry, chain 2 of 2, further chain) above

`CC[C@H](C)[C@@H]1NC(=O)[C@H](CCC(=O)O)NC(=O)[C@@H]2CSSC[C@@H]3NC(=O)[C@H](Cc4ccc(O)cc4)NC(=O)[C@@H](NC(=O)[C@@H](NC(=O)[C@H](C)N)[C@@H](C)O)CSSC[C@@H](C(=O)N[C@@H](CCCNC(=N)N)C(=O)O)NC(=O)[C@H](CSSC[C@H](NC(=O)[C@H](CCCNC(=N)N)NC(=O)CNC(=O)[C@H]([C@@H](C)O)NC(=O)[C@H](CCCNC(=N)N)NC3=O)C(=O)N[C@@H](C)C(=O)N[C@@H]([C@@H](C)O)C(=O)N[C@@H](CCCNC(=N)N)C(=O)N[C@@H](CCC(=O)O)C(=O)N[C@@H](CO)C(=O)N[C@@H](CC(C)C)C(=O)N[C@@H](CO)C(=O)NCC(=O)N[C@@H](C(C)C)C(=O)N2)NC(=O)[C@H](CC(C)C)NC(=O)[C@H](CCCNC(=N)N)NC(=O)[C@H](Cc2ccc(O)cc2)NC(=O)[C@H](CC(C)C)NC(=O)[C@H](CCCNC(=N)N)NC(=O)CNC(=O)[C@H](CO)NC1=O` [HD5, human α-defensin 5, reference compound] (H-ATCYCRTGRCATRESLSGVCEISGRLYRLCCR-OH; disulfide 3-31, 5-20, 10-30): the Kd in [1] was 1.81 ± 0.22 µM.
`CC[C@H](C)[C@@H]1NC(=O)[C@H](CCC(=O)O)NC(=O)[C@@H]2CSSC[C@@H]3NC(=O)[C@H](Cc4ccc(O)cc4)NC(=O)[C@@H](NC(=O)[C@@H](NC(=O)[C@H](C)N)[C@@H](C)O)CSSC[C@@H](C(=O)N[C@@H](CCCNC(=N)N)C(=O)O)NC(=O)[C@H](CSSC[C@H](NC(=O)[C@H](CCCNC(=N)N)NC(=O)CNC(=O)[C@H]([C@@H](C)O)NC(=O)[C@H](CCCNC(=N)N)NC3=O)C(=O)N[C@@H](C)C(=O)N[C@@H]([C@@H](C)O)C(=O)N[C@@H](CCCNC(=N)N)C(=O)N[C@@H](CCC(=O)O)C(=O)N[C@@H](CO)C(=O)N[C@@H](CC(C)C)C(=O)N[C@@H](CO)C(=O)NCC(=O)N[C@@H](C(C)C)C(=O)N2)NC(=O)[C@H](C)NC(=O)[C@H](CCCNC(=N)N)NC(=O)[C@H](Cc2ccc(O)cc2)NC(=O)[C@H](CC(C)C)NC(=O)[C@H](CCCNC(=N)N)NC(=O)CNC(=O)[C@H](CO)NC1=O` [L29A] (H-ATCYCRTGRCATRESLSGVCEISGRLYRACCR-OH; disulfide 3-31, 5-20, 10-30) had a Kd in [1] of 3.82 ± 0.3 µM.
The same measure, in the same setting: the figure for `CC[C@H](C)[C@@H]1NC(=O)[C@H](CCC(=O)O)NC(=O)[C@@H]2CSSC[C@@H]3NC(=O)[C@H](Cc4ccc(O)cc4)NC(=O)[C@@H](NC(=O)[C@@H](NC(=O)[C@H](C)N)[C@@H](C)O)CSSC[C@@H](C(=O)N[C@@H](CCCNC(=N)N)C(=O)O)NC(=O)[C@H](CSSC[C@H](NC(=O)[C@H](CCCNC(=N)N)NC(=O)CNC(=O)[C@H]([C@@H](C)O)NC(=O)[C@H](CCCNC(=N)N)NC3=O)C(=O)N[C@@H](C)C(=O)N[C@@H]([C@@H](C)O)C(=O)N[C@@H](CCCNC(=N)N)C(=O)N[C@@H](CCC(=O)O)C(=O)N[C@@H](CO)C(=O)N[C@@H](CC(C)C)C(=O)N[C@@H](CO)C(=O)NCC(=O)N[C@@H](C(C)C)C(=O)N2)NC(=O)[C@H](CC(C)C)NC(=O)[C@H](CCCNC(=N)N)NC(=O)[C@H](C)NC(=O)[C@H](CC(C)C)NC(=O)[C@H](CCCNC(=N)N)NC(=O)CNC(=O)[C@H](CO)NC1=O` [Y27A] (H-ATCYCRTGRCATRESLSGVCEISGRLARLCCR-OH; disulfide 3-31, 5-20, 10-30) is 3.39 ± 0.27 µM.
Take HD5 L29A (peptide): the Kd in test [2] amounted to 3.82 µM.
On the same count and under the same terms, the figure for HD5 Y27A (peptide) is 3.39 µM.
As for HNP1 W26A, the “Effect of HNP1 mutation on anti-AdV activity (in words)” value in the test on AdV5.eGFP [3] is “most deleterious”.
As to human AdV-5 fiber (natural protein), the stoichiometry N in [4] and in test [5] was 3 each time.
The molecule “human AdV-5 penton base (natural protein)” registered a stoichiometry N in test [6] of 5.
For human neutrophil peptide 1 [HNP1], the “Ability to neutralize AdV infection compared to HD5 (in words)” value in the test with AdV5.eGFP [7] was “reduced ability to neutralize AdV infection”.

B1: human α-defensin 5 (HD5), wild type (peptide)
chain: ATCYCRTGRCATRESLSGVCEISGRLYRLCCR
Regarding B1, in test [2], the Kd came to 1.81 µM and the stoichiometry N was found to be 210.

B2: CAR-Ig: soluble form of the AdV receptor fused to the constant region of rabbit Ig (protein)
chain: LSITTPEEMIEKAKGETAYLPCKFTLSPEDQGPLDIEWLISPADNQKVDQVIILYSGDKIYDDYYPDLKGRVHFTSNDLKSGDASINVTNLQLSDIGTYQCKVKKAPGVANKKIHLVVLVKPSGARCYVDGSEEIGSDFKIKCEPKEGSLPLQYEWQKLSDSQKMPTSWLAEMTSSVISVKNASSEYSGTYSCTVRNRVGSDQCLLRLNVVPPSNK
modifications: left off: Fc (rabbit IgG heavy chain), end not stated, kept
Turning to B2, the “Binding to immobilized fiber (in words)” value in the test with fiber is recorded as “able to bind”. For the same molecule, in the test with penton base (PB), the “Binding to immobilized PB (in words)” value is “unable to bind”. The “Binding to immobilized rPenton (in words)” value in [1] was “able to bind”.

Broadly, the Kd is a measure of binding affinity in units of concentration. For orientation: stoichiometry N means the number of molecules, sites or subunits per partner or assembly.
